Measurements from patent US20190169313A1.

Biological target: D-dimer
Assay: detection of D-dimer; format not described

“mouse monoclonal antibody AB424 directed to GGEL (Abcam, catalog number AB424)” was tested, and the titer was 0.6 µg/mL.
